# Results: patent US20130035289A1, “PHARMACEUTICAL COMPOSITION FOR TREATMENT OF THROMBOSIS-RELATED DISEASES COMPRISING A FRAGMENT OF PROLACTIN (PRL)-GROWTH HORMONE (GH)-PLACENTAL LACTOGEN (PL)-FAMILY PROTEIN” (UNIVERSITE DE LIEGE, priority 2010, published 2013)
# Columns and labels:
# NF-κB = NF-κB p65 DNA-binding activity in HUVECs; format: cell-based, human; details: 16K PRL 50 nM 1 h
# Protocol: HUVECs were incubated for 2 h with 16K PRL and immunostained for uPA (red) or 16K PRL (green) and nuclei (DAPI, blue). Bottom panels: co-localization of PAI-1 and 16K PRL. To visualize added PAI-1 and not endogenous PAI-1, cells were incubated with His-tag PAI-1 and 16K PRL and stained for PAI-1 (red), 16K PRL (green), and nuclei (DAPI, blue). (B) Schematic outline of the proximity ligation assay (PLA) strategy showing primary antibody from different species for uPA and 16K PRL. Juxtaposition of secondary, oligonucleotide ligated antibodies allows a rolling circle amplification detected by a cy3-probe. (C) Detection of uPA/16K PRL complexes (red spots) on HUVECs by PLA. […]
# HUVECs were pre-treated with a blocking uPAR Ab 3 μg/ml (R&D system) or control IgG (SantaCruz) for 1 h and then incubated for 1 h with 16K PRL (50 nM). The p65 DNA-binding activity of NF-κB was quantified by ELISA (EZ Transcription Factor kit NF-κB p65 (Pierce)) according to the manufacturer's instructions on total protein extracts. Protein concentrations were determined by the […] using the BCA protein assay reagent (Pierce). NF-κB binding to the target oligonucleotide was detected by incubation with primary antibody specific for the activated form of p65, visualized by anti-IgG horseradish peroxidase conjugate and developing solution. Chemiluminescence was quantified with a luminometer.
# PAI-1 = molecular target: T1, PAI-1 (Mus musculus, UniProt P22777); assay: Murine thromboembolism model (tPA/thromboplastin); format: in vivo; details: recombinant 16K PRL 1 mg/kg i.v. 5 min before t-PA/thromboplastin; survival at 15 min; control group 73%; p=0.003
# T1 construct: from tissue; host or cells: BalbC Njrj mice, in vivo (blood)
# T1 sequence (P22777 23-402): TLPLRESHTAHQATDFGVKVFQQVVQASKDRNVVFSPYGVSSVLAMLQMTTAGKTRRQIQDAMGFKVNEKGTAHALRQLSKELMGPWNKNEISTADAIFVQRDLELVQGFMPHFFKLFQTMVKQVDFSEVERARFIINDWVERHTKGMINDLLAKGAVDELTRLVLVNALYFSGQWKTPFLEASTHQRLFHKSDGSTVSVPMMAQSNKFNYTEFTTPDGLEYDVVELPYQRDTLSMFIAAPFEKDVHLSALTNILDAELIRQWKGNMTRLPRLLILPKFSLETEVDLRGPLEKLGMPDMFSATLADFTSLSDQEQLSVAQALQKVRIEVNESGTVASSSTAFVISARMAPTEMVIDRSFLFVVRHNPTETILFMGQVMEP
# Protocol: BalbC Njrj Mice were used and anesthetised with ketamine/xylazine throughout the whole experiment. Recombinant 16K PRL and adenovirus vectors 16K-Ad and Null-Ad were produced as described above. The animal experiment protocol used was approved by the Institutional Ethics Committee of the University of Liege.
# Recombinant 16K PRL (1 mg/kg) or POPRL 7-12 (10 mg/kg) were administrated via the vein to BalbC Njrj mice of approximately 15-18 g. Five minutes after the injection, a suboptimal concentration of t-PA (0.1 mg/kg) was injected immediately followed by i.v. injection of thromboplastin (3.3 μg/kg) to evoke thromboembolism. Mice were evaluated after 15 min for survival. For experiment with adenovirus vectors, mice were injected into the tail vein with 10^9 pfu of 16K hPRL adenovirus (16K-Ad) and their corresponding control (Null-Ad) 5 days before the injection a suboptimal concentration of t-PA (0.1 mg/kg) injected immediately followed by i.v. injection of thromboplastin (3.3 μg/kg).
# The fisher test was used to determine the significance of the differences in the mortality assays.
molecule,measurement,setting,value
"16K hPRL: 16K N-terminal human prolactin fragment, recombinant, produced and purified from E. coli (protein) LPICPGGAARCQVTLRDLFDRAVVLSHYIHNLSSEMFSEFDKRYTHGRGFITKAINSCHTSSLATPEDKEQAQQMNQKDFLSLIVSILRSWNEPLYHLVTEVRGMQEAPEAILSKAVEIEEQTKRLLEGMELIVSQVHP",16K PRL-induced NF-κB signaling,NF-κB; blocking uPAR antibody pre-treatment 1 h,disrupts
same,"16K PRL response (NF-κB activity), requirement of uPA",NF-κB; pre-treatment with ATF of uPA,required
same,mortality,PAI-1,32%
